# Data published in PMC3315481, “Phosphorylation of the Drosophila melanogaster RNA–Binding Protein HOW by MAPK/ERK Enhances Its Dimerization and Activity” (PLoS Genetics, 2012).
# Substitutions are numbered along the chain they refer to. Names and notes keep the numbering of the source.
# B1: Held Out Wings, long isoform, phospho-mutant T59A T64A (HOW(L)^TTAA) (natural protein, Drosophila melanogaster, UniProt O01367 1-405, looked up)
# chain: MSVCESKAVVQQQLQQHLQQQAAAAVVAVAQQQQAQAQAQAQAQAQQQQQAPQVVVPMAPQHLAPQQQQQSTQSIADYLAQLLKDRKQLAAFPNVFTHVERLLDEEIARVRASLFQINGVKKEPLTLPEPEGSVVTMNEKVYVPVREHPDFNFVGRILGPRGMTAKQLEQETGCKIMVRGKGSMRDKKKEDANRGKPNWEHLSDDLHVLITVEDTENRATVKLAQAVAEVQKLLVPQAEGEDELKKRQLMELAIINGTYRDTTAKSVAVCDEEWRRLVAASDSRLLTSTGLPGLAAQIRAPAAAPLGAPLILNPRMTVPTTAASILSAQAAPTAAFDQTGHGMIFAPYDYANYAALAGNPLLTEYADHSVGAIKQQRRLATNREHPYQRATVGVPAKPAGFIEIQ
# notes: Held Out Wings (HOW), isoform HOW(L), Drosophila melanogaster, with T59 and T64 mutated to alanine; Two differently tagged copies met in the co-IP: one fused to GFP (bait, vector pTGW) and one tagged with HA (prey, vector pTWH); also called HOW^TTAA; gfp-how(l)^TTAA; source: S2R+ cells, co-transfected, in lysate
# B2: Held Out Wings, long isoform, dimerization mutant E106G (HOW(L)^EG) (natural protein, Drosophila melanogaster, UniProt O01367 1-405, looked up)
# chain: B1 chain with A59T, A64T, E106G
# notes: Held Out Wings (HOW), isoform HOW(L), Drosophila melanogaster, with E106 mutated to glycine; Two differently tagged copies met in the co-IP: one fused to GFP (bait, vector pTGW) and one tagged with HA (prey, vector pTWH); also called HOW^EG; gfp-how(l)^EG; source: S2R+ cells, co-transfected, in lysate
# Target: the molecule itself
# Experiment: co-IP; S2R+ cells co-transfected with GFP-fused and HA-tagged HOW(L) variants (or gfp with how(l)^WT-HA); lysis in 1% NP40 buffer (50 mM Tris pH 7.5, 100 mM NaCl); IP with mouse anti-GFP on protein A/G beads 1-2 h at 4°C; Western blot with anti-HOW; co-precipitated HA protein normalised to its crude level and to the precipitated GFP protein
row,Protein,"co-immunoprecipitated HA protein, normalised, relative to HOW(L)^WT"
1,B1,0.56 ± 0.14
2,B2,0.13 ± 0.04
